Sequences and labels used below:
T1: human FcγRIIa R type extracellular domain with C-terminal His tag (human, UniProt P12318 34-217)
T1 construct: extracellular domain; also called FcgRIIaR
T1 sequence (looked up): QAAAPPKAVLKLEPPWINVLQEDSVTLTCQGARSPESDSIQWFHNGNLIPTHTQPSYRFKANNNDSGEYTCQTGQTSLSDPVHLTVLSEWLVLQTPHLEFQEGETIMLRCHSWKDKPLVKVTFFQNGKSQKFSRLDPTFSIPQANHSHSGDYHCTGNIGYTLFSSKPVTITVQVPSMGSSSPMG

T2: human FcγRIIb extracellular domain with C-terminal His tag (human, UniProt P31994 43-217)
T2 construct: extracellular domain; also called FcgRIIb
T2 sequence (looked up): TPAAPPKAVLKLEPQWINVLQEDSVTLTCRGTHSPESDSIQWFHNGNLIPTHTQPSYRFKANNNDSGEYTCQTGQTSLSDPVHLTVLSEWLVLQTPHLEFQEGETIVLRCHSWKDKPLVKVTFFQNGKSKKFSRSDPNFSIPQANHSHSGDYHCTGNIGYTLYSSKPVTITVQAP

T3: human FcγRIIa H type extracellular domain with C-terminal His tag (human, UniProt P12318 34-217)
T3 construct: extracellular domain; also called FcgRIIaH
T3 sequence (looked up): T1 sequence (looked up) with R134H

B1: IL6R-P559/IL6R-L (antibody, human IgG1, kappa)
heavy: QVQLQESGPGLVKPSETLSLTCAVSGHSISHDHAWSWVRQPPGEGLEWIGFISYSGITNYNPSLQGRVTISRDNSKNTLYLQMNSLRAEDTAVYYCARSLARTTAMDYWGEGTLVTVSSASTKGPSVFPLAPSSKSTSGGTAALGCLVKDYFPEPVTVSWNSGALTSGVHTFPAVLQSSGLYSLSSVVTVPSSSLGTQTYICNVNHKPSNTKVDKKVEPKSCDKTHTCPPCPAPELLGDDSVFLFPPKPKDTLMISRTPEVTCVVVDVSEEDGEVKFNWYVDGVEVHNAKTKPREEQYNSTYRVVSVLTVLHQDWLNGKEYKCKVSNKALPAPIEKTISKAKGQPREPQVYTLPPSRDELTKNQVSLTCLVKGFYPSDIAVEWESNGQPENNYKTTPPVLDSDGSFFLYSKLTVDKSRWQQGNVFSCSVMHEALHNHYTQKSLSLSP
light: not shown
B2: IL6R-P747/IL6R-L (antibody, human IgG1, kappa)
heavy: B1 heavy with L237F, D239Q, F243M, E270H, G273P, Y298E, K324E
light: not shown
B3: IL6R-P562/IL6R-L (antibody, human IgG1, kappa)
heavy: B1 heavy with E235D
light: not shown
B4: IL6R-P727/IL6R-L (antibody, human IgG1, kappa)
heavy: B1 heavy with D239Q, F243M, E270P, G273P, Y298E, A332H
light: not shown
B5: IL6R-P744/IL6R-L (antibody, human IgG1, kappa)
heavy: B1 heavy with D239G, E270H, G273P, S300A, K324A
light: not shown
B6: IL6R-P588/IL6R-L (antibody, human IgG1, kappa)
heavy: B1 heavy with D239G, V266I, S269A
light: not shown
B7: IL6R-P743/IL6R-L (antibody, human IgG1, kappa)
heavy: B1 heavy with D239G, E270H, G273P, A329G, A332S, P333S
light: not shown
B8: IL6R-P748/IL6R-L (antibody, human IgG1, kappa)
heavy: B1 heavy with D239Q, F243M, E270P, G273P, Y298E, K324A, A332H
light: not shown
B9: IL6R-P691/IL6R-L (antibody, human IgG1, kappa)
heavy: B1 heavy with L237F, D239Q, F243M, E270H, G273P, Y298E
light: not shown
B10: IL6R-P749/IL6R-L (antibody, human IgG1, kappa)
heavy: B1 heavy with D239Q, F243M, E270P, G273P, Y298E, K324E, A332H
light: not shown
B11: IL6R-P745/IL6R-L (antibody, human IgG1, kappa)
heavy: B1 heavy with D239G, E270H, G273P, S300A, K324E
light: not shown
B12: IL6R-P737/IL6R-L (antibody, human IgG1, kappa)
heavy: B1 heavy with D239Q, F243M, E270P, G273P, Y298E, S326H, A332H
light: not shown
B13: IL6R-P733/IL6R-L (antibody, human IgG1, kappa)
heavy: B1 heavy with L237F, D239Q, F243M, E270P, G273P, Y298E, S326H
light: not shown
B14: IL6R-P746/IL6R-L (antibody, human IgG1, kappa)
heavy: B1 heavy with L237F, D239Q, F243M, E270H, G273P, Y298E, K324A
light: not shown
B15: IL6R-P729/IL6R-L (antibody, human IgG1, kappa)
heavy: B1 heavy with L237F, D239Q, F243M, E270P, G273P, Y298E
light: not shown

Numbering of substitutions follows the chain as printed.

15 molecules from US20220411483A1 (Chugai, published 2022) can be followed below.

T5 sequence (P08637 17-208 F176V): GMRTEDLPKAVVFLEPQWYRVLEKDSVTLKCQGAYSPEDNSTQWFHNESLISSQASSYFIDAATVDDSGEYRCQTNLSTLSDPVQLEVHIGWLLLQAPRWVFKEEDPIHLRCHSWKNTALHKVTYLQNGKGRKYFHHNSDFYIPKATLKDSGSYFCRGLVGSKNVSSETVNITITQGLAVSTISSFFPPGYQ

The target in one assay is T4, human FcγRIa extracellular domain with C-terminal His tag (human, UniProt P12314 16-292).
T4 construct: Whole entry named; also called FcgRIa
T4 sequence (P12314 16-292): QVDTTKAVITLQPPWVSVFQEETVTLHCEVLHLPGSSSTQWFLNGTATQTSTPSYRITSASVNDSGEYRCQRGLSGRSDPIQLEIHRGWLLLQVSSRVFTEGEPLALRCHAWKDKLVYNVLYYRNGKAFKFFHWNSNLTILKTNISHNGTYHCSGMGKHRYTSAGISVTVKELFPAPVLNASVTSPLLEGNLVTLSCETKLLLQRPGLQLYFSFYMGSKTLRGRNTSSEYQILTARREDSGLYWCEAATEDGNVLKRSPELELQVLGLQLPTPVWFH
Nature of the assay: SPR, antibody captured, FcgR analyte.
B1: binding was characterised by a dissociation constant (Kd) of 9.1 nM.
B2 registered a Kd of 90 nM.
The same measure, in the same setting: in the case of B3 it was 4.2 nM; in that of B4, 71 nM.
On the same count and under the same terms, as for B5, the figure is 10 nM.
On the same count and under the same terms, in the case of B6 it was 1.4 nM; in that of B7, 18 nM; in that of B8, 100 nM.
Molecule B9 displayed a dissociation constant (Kd) of 130 nM.
Still for that read-out and setting: as for B10, the figure is 52 nM.
Still for that read-out and setting: in the case of B11 it was 5 nM; in that of B12, 46 nM; in that of B13, 200 nM.
On the same count and under the same terms, as for B14, the figure is 7.4 nM.
B15 returned a dissociation constant (Kd) of 220 nM.

Another assay concerns the target T1, human FcγRIIa R type extracellular …. Description: SPR, antibody captured, FcgR analyte. For orientation: Surface plasmon resonance follows binding to a sensor surface in real time, without labels.
The molecule B1 gave a Kd of 2.4 µM.
On the same count and under the same terms, as for B2, the figure is 27 µM; as for B3, 2 µM; as for B4, 34 µM.
Still for that read-out and setting: in the case of B5 it was 18 µM.
The same measure, in the same setting: in the case of B6 it was 1.6 µM; in that of B7, 20 µM.
With B8, binding was put at a Kd of 39 µM.
On the same count and under the same terms, in the case of B9 it was 28 µM; in that of B10, 22 µM.
Still for that read-out and setting: as for B11, the figure is 26 µM; as for B12, 37 µM; as for B13, 13 µM.
Same read-out and setting: in the case of B14 it was 18 µM; in that of B15, 16 µM.

In another assay the target is T2, human FcγRIIb extracellular domain with …. Description: SPR, antibody captured, FcgR analyte.
Regarding B1, binding was characterised by a dissociation constant (Kd) of 140 nM.
On the same count and under the same terms, as for B2, the figure is 2700 nM.
Turning to B3, the affinity, expressed as Kd, was 130 nM.
For the molecule B4, the Kd came to 2700 nM.
On the same count and under the same terms, as for B5, the figure is 3200 nM; as for B6, 38 nM; as for B7, 3600 nM.
The same measure, in the same setting: as for B8, the figure is 6200 nM; as for B9, 2300 nM; as for B10, 4000 nM.
On the same count and under the same terms, in the case of B11 it was 3100 nM; in that of B12, 4300 nM.
B13: binding was put at a Kd of 4500 nM.
B14 came in with a dissociation constant Kd of 3000 nM.
Same read-out and setting: in the case of B15 it was 3000 nM.

In the next assay the target is T4, human FcγRIa extracellular domain with …. Description: SPR, KD of IL6R-G1d/IL6R-L divided by KD of variant.
B1: the “Relative FcgRIa-binding Activity” value is 0.035.
Same read-out and setting: in the case of B2 it was 0.004; in that of B3, 0.076.
Still for that read-out and setting: in the case of B4 it was 0.005.
The same measure, in the same setting: in the case of B5 it was 0.032; in that of B6, 0.229.
For B7, the “Relative FcgRIa-binding Activity” value came to 0.018.
Still for that read-out and setting: in the case of B8 it was 0.003; in that of B9, 0.002.
On the same count and under the same terms, as for B10, the figure is 0.006; as for B11, 0.064; as for B12, 0.007.
Regarding B13, the “Relative FcgRIa-binding Activity” value stood at 0.002.
On to B14, for which the “Relative FcgRIa-binding Activity” value is 0.043.
As to B15, the “Relative FcgRIa-binding Activity” value is 0.001.

Another assay addresses T1, human FcγRIIa R type extracellular …. The assay is described as above.
On to B1, for which the “Relative FcgRIIaR-binding Activity” value was 0.46.
Still for that read-out and setting: as for B2, the figure is 0.04.
On the same count and under the same terms, in the case of B3 it was 0.55.
For the molecule B4, the “Relative FcgRIIaR-binding Activity” value worked out at 0.03.
In the case of B5, the “Relative FcgRIIaR-binding Activity” value came out at 0.06.
On the same count and under the same terms, in the case of B6 it was 0.69.
On the same count and under the same terms, in the case of B7 it was 0.06; in that of B8, 0.03.
The same measure, in the same setting: in the case of B9 it was 0.04; in that of B10, 0.05.
With B11, the “Relative FcgRIIaR-binding Activity” value is 0.04.
B12: the “Relative FcgRIIaR-binding Activity” value turned out to be 0.03.
The same measure, in the same setting: as for B13, the figure is 0.08; as for B14, 0.06; as for B15, 0.07.

The target of a further assay is T3, human FcγRIIa H type extracellular …. The assay is described as above.
As to B1, the “Relative FcgRIIaH-binding Activity” value amounted to 0.021.
Same read-out and setting: in the case of B2 it was 0.012; in that of B3, 0.022.
Same read-out and setting: as for B4, the figure is 0.015.
The same measure, in the same setting: as for B5, the figure is 0.013; as for B6, 0.034.
For B7, the “Relative FcgRIIaH-binding Activity” value amounted to 0.013.
Same read-out and setting: in the case of B8 it was 0.01; in that of B9, 0.01; in that of B10, 0.009.
Still for that read-out and setting: as for B11, the figure is 0.014.
The same measure, in the same setting: as for B12, the figure is 0.016; as for B13, 0.014.
For the molecule B14, the “Relative FcgRIIaH-binding Activity” value is 0.01.
Same read-out and setting: as for B15, the figure is 0.013.

The target of a further assay is T2, human FcγRIIb extracellular domain with …. The description is as above.
In the case of B1, the “Relative FcgRIIb-binding Activity” value came to 15.
Same read-out and setting: as for B2, the figure is 0.8.
The same measure, in the same setting: as for B3, the figure is 16.2; as for B4, 0.8.
Still for that read-out and setting: in the case of B5 it was 0.7.
As for B6, the “Relative FcgRIIb-binding Activity” value was 55.3.
Regarding B7, the “Relative FcgRIIb-binding Activity” value amounted to 0.6.
Same read-out and setting: in the case of B8 it was 0.3; in that of B9, 0.9; in that of B10, 0.5.
The same measure, in the same setting: as for B11, the figure is 0.7; as for B12, 0.5; as for B13, 0.5.
Regarding B14, the “Relative FcgRIIb-binding Activity” value came to 0.7.
Same read-out and setting: in the case of B15 it was 0.7.

Another assay addresses T5, human FcγRIIIa V type extracellular domain with C-terminal His tag (human, UniProt P08637 17-208).
T5 construct: extracellular domain; also called FcgRIIIaV
Described as above.
For the molecule B1, the “Relative FcgRIIIaV-binding Activity” value is 0.009.
Still for that read-out and setting: in the case of B2 it was 0.006; in that of B3, 0.007.
The same measure, in the same setting: as for B4, the figure is 0.007.
The same measure, in the same setting: in the case of B5 it was 0.007; in that of B6, 0.011.
As to B7, the “Relative FcgRIIIaV-binding Activity” value is 0.006.
On the same count and under the same terms, as for B8, the figure is 0.005.
Still for that read-out and setting: as for B9, the figure is 0.004; as for B10, 0.004.
On the same count and under the same terms, in the case of B11 it was 0.007; in that of B12, 0.007.
Turning to B13, the “Relative FcgRIIIaV-binding Activity” value is 0.007.
The same measure, in the same setting: in the case of B14 it was 0.005; in that of B15, 0.006.

By Kd is commonly meant the free concentration of one partner at which half of the binding sites on the other are occupied at equilibrium, for simple one-to-one binding. A low value points to tighter binding.
